Residue numbers refer to the chain shown, from its start. Numbers in names are those of the source.
B1: CE115HA000 A102I one-arm antibody (antibody, human IgG1, kappa, L234A L235A, N297A, name in Kabat numbering)
heavy: QVQLVESGGGVVQPGRSLRLSCAASGFTFSNAWMHWVRQAPGKGLEWVAQIKAKSNNYATYYAESVKGRFTISRDDSKNSLYLQMNSLKTEDTAVYYCRYVHYGAYYGVDIWGQGTTVTVSSASTKGPSVFPLAPSSKSTSGGTAALGCLVKDYFPEPVTVSWNSGALTSGVHTFPAVLQSSGLYSLSSVVTVPSSSLGTQTYICNVNHKPSNTKVDKKVEPKSCDKTHTCPPCPAPEAAGGPSVFLFPPKPKDTLMISRTPEVTCVVVDVSHEDPEVKFNWYVDGVEVHNAKTKPREEQYASTYRVVSVLTVLHQDWLNGKEYKCKVSNKALPAPIEKTISKAKGQPREPQVYTLPPSRCELTKNQVSLSCAVKGFYPSDIAVEWESNGQPENNYKTTPPVLDSDGSFFLVSKLTVDKSRWQQGNVFSCSVMHEALHNHYTQKSLSLSPDYKDDDDK
chain: EPKSSDKTHTCPPCPAPELLGGPSVFLFPPKPKDTLMISRTPEVTCVVVDVSHEDPEVKFNWYVDGVEVHNAKTKPREEQYNSTYRVVSVLTVLHQDWLNGKEYKCKVSNKALPAPIEKTISKAKGQPREPQVCTLPPSRDELTKNQVSLWCLVKGFYPSDIAVEWESNGQPENNYKTTPPVLDSDGSFFLYSKLTVDKSRWQQGNVFSCSVMHEALHNRYTQKSLSLSP
light: DIVMTQSPLSLPVTPGEPASISCRSSQSLVHSNRNTYLHWYQQKPGQAPRLLIYKVSNRFSGVPDRFSGSGSGTDFTLKISRVEAEDVGVYYCGQGTQVPYTFGQGTKLEIKRTVAAPSVFIFPPSDEQLKSGTASVVCLLNNFYPREAKVQWKVDNALQSGNSQESVTEQDSKDSTYSLSSTLTLSKADYEKHKVYACEVTHQGLSSPVTKSFNRGEC
B2: CE115HA000 D72A one-arm antibody (antibody, human IgG1, kappa, L234A L235A, N297A, name in Kabat numbering)
heavy: B1 heavy with D75A, I111A
chain: B1 chain
light: B1 light
B3: CE115HA000 D101I one-arm antibody (antibody, human IgG1, kappa, L234A L235A, N297A, name in Kabat numbering)
heavy: B1 heavy with D110I, I111A
chain: B1 chain
light: B1 light
B4: CE115HA000 D101P one-arm antibody (antibody, human IgG1, kappa, L234A L235A, N297A, name in Kabat numbering)
heavy: B1 heavy with D110P, I111A
chain: B1 chain
light: B1 light
B5: CE115HA000 D101N one-arm antibody (antibody, human IgG1, kappa, L234A L235A, N297A, name in Kabat numbering)
heavy: B1 heavy with D110N, I111A
chain: B1 chain
light: B1 light
B6: CE115HA000 E61D one-arm antibody (antibody, human IgG1, kappa, L234A L235A, N297A, name in Kabat numbering)
heavy: B1 heavy with E64D, I111A
chain: B1 chain
light: B1 light
B7: CE115HA000 D72E one-arm antibody (antibody, human IgG1, kappa, L234A L235A, N297A, name in Kabat numbering)
heavy: B1 heavy with D75E, I111A
chain: B1 chain
light: B1 light
B8: CE115HA000 D101R one-arm antibody (antibody, human IgG1, kappa, L234A L235A, N297A, name in Kabat numbering)
heavy: B1 heavy with D110R, I111A
chain: B1 chain
light: B1 light
B9: CE115HA000 D73R one-arm antibody (antibody, human IgG1, kappa, L234A L235A, N297A, name in Kabat numbering)
heavy: B1 heavy with D76R, I111A
chain: B1 chain
light: B1 light
B10: CE115HA000 A102V one-arm antibody (antibody, human IgG1, kappa, L234A L235A, N297A, name in Kabat numbering)
heavy: B1 heavy with I111V
chain: B1 chain
light: B1 light
B11: CE115HA000 E61A one-arm antibody (antibody, human IgG1, kappa, L234A L235A, N297A, name in Kabat numbering)
heavy: B1 heavy with E64A, I111A
chain: B1 chain
light: B1 light
B12: CE115HA000 D73K one-arm antibody (antibody, human IgG1, kappa, L234A L235A, N297A, name in Kabat numbering)
heavy: B1 heavy with D76K, I111A
chain: B1 chain
light: B1 light
B13: CE115HA000 D101L one-arm antibody (antibody, human IgG1, kappa, L234A L235A, N297A, name in Kabat numbering)
heavy: B1 heavy with D110L, I111A
chain: B1 chain
light: B1 light
B14: CE115HA000 A102Y one-arm antibody (antibody, human IgG1, kappa, L234A L235A, N297A, name in Kabat numbering)
heavy: B1 heavy with I111Y
chain: B1 chain
light: B1 light
B15: CE115HA000 D101G one-arm antibody (antibody, human IgG1, kappa, L234A L235A, N297A, name in Kabat numbering)
heavy: B1 heavy with D110G, I111A
chain: B1 chain
light: B1 light
B16: CE115HA000 D101Y one-arm antibody (antibody, human IgG1, kappa, L234A L235A, N297A, name in Kabat numbering)
heavy: B1 heavy with D110Y, I111A
chain: B1 chain
light: B1 light
B17: CE115HA000 D101T one-arm antibody (antibody, human IgG1, kappa, L234A L235A, N297A, name in Kabat numbering)
heavy: B1 heavy with D110T, I111A
chain: B1 chain
light: B1 light
B18: CE115HA000 D73E one-arm antibody (antibody, human IgG1, kappa, L234A L235A, N297A, name in Kabat numbering)
heavy: B1 heavy with D76E, I111A
chain: B1 chain
light: B1 light
B19: CE115HA000 D101F one-arm antibody (antibody, human IgG1, kappa, L234A L235A, N297A, name in Kabat numbering)
heavy: B1 heavy with D110F, I111A
chain: B1 chain
light: B1 light
B20: CE115HA000 D101Q one-arm antibody (antibody, human IgG1, kappa, L234A L235A, N297A, name in Kabat numbering)
heavy: B1 heavy with D110Q, I111A
chain: B1 chain
light: B1 light
B21: CE115HA000 E61P one-arm antibody (antibody, human IgG1, kappa, L234A L235A, N297A, name in Kabat numbering)
heavy: B1 heavy with E64P, I111A
chain: B1 chain
light: B1 light
B22: CE115HA000 D101S one-arm antibody (antibody, human IgG1, kappa, L234A L235A, N297A, name in Kabat numbering)
heavy: B1 heavy with D110S, I111A
chain: B1 chain
light: B1 light
B23: CE115HA000 D73N one-arm antibody (antibody, human IgG1, kappa, L234A L235A, N297A, name in Kabat numbering)
heavy: B1 heavy with D76N, I111A
chain: B1 chain
light: B1 light
B24: CE115HA000 D72V one-arm antibody (antibody, human IgG1, kappa, L234A L235A, N297A, name in Kabat numbering)
heavy: B1 heavy with D75V, I111A
chain: B1 chain
light: B1 light
B25: CE115HA000 D101M one-arm antibody (antibody, human IgG1, kappa, L234A L235A, N297A, name in Kabat numbering)
heavy: B1 heavy with D110M, I111A
chain: B1 chain
light: B1 light
B26: CE115HA000 D73G one-arm antibody (antibody, human IgG1, kappa, L234A L235A, N297A, name in Kabat numbering)
heavy: B1 heavy with D76G, I111A
chain: B1 chain
light: B1 light
B27: CE115HA000 D73T one-arm antibody (antibody, human IgG1, kappa, L234A L235A, N297A, name in Kabat numbering)
heavy: B1 heavy with D76T, I111A
chain: B1 chain
light: B1 light
B28: CE115HA000 D101V one-arm antibody (antibody, human IgG1, kappa, L234A L235A, N297A, name in Kabat numbering)
heavy: B1 heavy with D110V, I111A
chain: B1 chain
light: B1 light
B29: CE115HA000 D73A one-arm antibody (antibody, human IgG1, kappa, L234A L235A, N297A, name in Kabat numbering)
heavy: B1 heavy with D76A, I111A
chain: B1 chain
light: B1 light
B30: CE115HA000 D101H one-arm antibody (antibody, human IgG1, kappa, L234A L235A, N297A, name in Kabat numbering)
heavy: B1 heavy with D110H, I111A
chain: B1 chain
light: B1 light
B31: CE115HA000 A102P one-arm antibody (antibody, human IgG1, kappa, L234A L235A, N297A, name in Kabat numbering)
heavy: B1 heavy with I111P
chain: B1 chain
light: B1 light
B32: CE115HA000 D101K one-arm antibody (antibody, human IgG1, kappa, L234A L235A, N297A, name in Kabat numbering)
heavy: B1 heavy with D110K, I111A
chain: B1 chain
light: B1 light
B33: CE115HA000 D101A one-arm antibody (antibody, human IgG1, kappa, L234A L235A, N297A, name in Kabat numbering)
heavy: B1 heavy with D110A, I111A
chain: B1 chain
light: B1 light

What follows are binders tested against T1, CD3 epsilon homodimer protein (UniProt P07766 23-126) (assay: SPR (Biacore T200), CD3 epsilon homodimer on CM4 chip, one-arm antibody as analyte, 25 C;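 also: homodimer attached to the sensor surface via amine coupling, HBS-EP+ used as running buffer during binding runs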).
T1 construct: immobilized on Sensor chip CM4 by amine coupling; also called CD3 (CD3 epsilon)
T1 sequence (P07766 23-126): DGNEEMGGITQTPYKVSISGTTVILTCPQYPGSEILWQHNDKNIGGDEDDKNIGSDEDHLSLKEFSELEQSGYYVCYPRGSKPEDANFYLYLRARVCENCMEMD
Procedure: An appropriate amount of CD3 epsilon homodimer protein was immobilized onto Sensor chip CM4 (GE Healthcare Japan Corp.) by the amine coupling method. Then, the antibody having an appropriate concentration was injected thereto as an analyte and allowed to interact with the CD3 epsilon homodimer protein on the sensor chip. Then, the sensor chip was regenerated by the injection of 10 mmol/L glycine-HCl (pH 1.5). The assay was conducted at 25 degrees C., and HBS-EP+(GE Healthcare Japan Corp.) was used as a running buffer. […] Each parameter was calculated using Biacore T200 Evaluation Software (GE Healthcare Japan Corp.).
For B1, the “ratio of amounts bound (altered form / CE115HA000)” value was 1.48.
B2 was tested, and the “ratio of amounts bound (altered form / CE115HA000)” value was 1.41.
With B3 the “ratio of amounts bound (altered form / CE115HA000)” value was 1.18.
With B4 the “ratio of amounts bound (altered form / CE115HA000)” value was 0.2.
B5 was tested, and the “ratio of amounts bound (altered form / CE115HA000)” value was 2.02.
B6 was tested, and the “ratio of amounts bound (altered form / CE115HA000)” value was 0.91.
B7 was tested, and the “ratio of amounts bound (altered form / CE115HA000)” value was 1.05.
For B8, the “ratio of amounts bound (altered form / CE115HA000)” value was 0.24.
For B9, the “ratio of amounts bound (altered form / CE115HA000)” value was 1.04.
With B10 the “ratio of amounts bound (altered form / CE115HA000)” value was 1.43.
With B11 the “ratio of amounts bound (altered form / CE115HA000)” value was 1.09.
B12 was tested, and the “ratio of amounts bound (altered form / CE115HA000)” value was 0.87.
B13 was tested, and the “ratio of amounts bound (altered form / CE115HA000)” value was 0.62.
B14 was tested, and the “ratio of amounts bound (altered form / CE115HA000)” value was 0.91.
For B15, the “ratio of amounts bound (altered form / CE115HA000)” value was 1.38.
B16 was tested, and the “ratio of amounts bound (altered form / CE115HA000)” value was 0.49.
B17 was tested, and the “ratio of amounts bound (altered form / CE115HA000)” value was 0.79.
For B18, the “ratio of amounts bound (altered form / CE115HA000)” value was 0.73.
For B19, the “ratio of amounts bound (altered form / CE115HA000)” value was 0.75.
With B20 the “ratio of amounts bound (altered form / CE115HA000)” value was 2.35.
For B21, the “ratio of amounts bound (altered form / CE115HA000)” value was 1.07.
For B22, the “ratio of amounts bound (altered form / CE115HA000)” value was 1.16.
With B23 the “ratio of amounts bound (altered form / CE115HA000)” value was 0.94.
With B24 the “ratio of amounts bound (altered form / CE115HA000)” value was 1.43.
In the case of B25, the “ratio of amounts bound (altered form / CE115HA000)” value is reported as 1.2.
B26 was tested, and the “ratio of amounts bound (altered form / CE115HA000)” value was 1.07.
For B27, the “ratio of amounts bound (altered form / CE115HA000)” value was 0.63.
B28 was tested, and the “ratio of amounts bound (altered form / CE115HA000)” value was 1.33.
For B29, the “ratio of amounts bound (altered form / CE115HA000)” value was 0.83.
For B30, the “ratio of amounts bound (altered form / CE115HA000)” value was 1.21.
For B31, the “ratio of amounts bound (altered form / CE115HA000)” value was 0.14.
B32 was tested, and the “ratio of amounts bound (altered form / CE115HA000)” value was 0.63.
B33 was tested, and the “ratio of amounts bound (altered form / CE115HA000)” value was 1.26.
